Source: patent US20220396819A1, “METHOD FOR PRODUCING PEPTIDE HAVING PHYSIOLOGICAL ACTIVITY, AND PEPTIDE COMPRISING SHORT LINKER” (priority 2019, published 2022)
Positions of bridges follow the written chain, without caps; N, C: chain ends. No end group written: not given here.

Legend:
[1] = biological target: T1, VEGFR (Homo sapiens, UniProt P35968); test: VEGF inhibitory ability, luciferase assay in VEGFR/NFAT Reporter HEK293 cells; format: cell-based
T1 construct: host or cells: VEGFR/NFAT Reporter HEK293 cells
Protocol: The VEGF inhibitory ability of the VEGFR_D2-PAS heterodimer peptide was evaluated by luciferase assay. 40,000 cell/well VEGFR/NFAT Reporter HEK293 cells (BPS Bioscience) were seeded and incubated overnight in a 5% CO2 incubator at 37° C. The cells were incubated overnight in Assay medium (MEM medium (Nacalai Tesque), 1×MEM Non-Essential Amino Acids Solution (Thermo Fisher Scientific), 1 mM Sodium Pyruvate (Nacalai Tesque), 1% Penicillin-Streptomycin (Sigma Aldrich), and 0.3% FBS (Thermo Fisher Scientific)) to starvation. […] The cells were stimulated by culturing in a 5% CO2 incubator at 37° C. for 4 hours.
One-Glo Luciferase Assay System (Promega) was used to detect the signal intensity. Medium supernatant in an amount of 50 μL was removed, 50 μL of One-Glo reagent was added, and the cells were lysed for 10 minutes at room temperature. The luminescence emitted from the cell lysate solution was detected with a Nivo plate reader (Perkin Elmer) to quantify the activation of the VEGFR-NFAT pathway, and the relative signal activity value for the sample without addition of evaluation compound was determined and used as relative receptor activity.
The VEGF inhibitory ability of the cell-free expressed VEGFR_D2-PAS heterodimer peptide was evaluated by luciferase assay. 40,000 cell/well VEGFR/NFAT Reporter HEK293 cells (BPS Bioscience) were seeded and incubated overnight in a 5% CO2 incubator at 37° C. The cells were incubated overnight in Assay medium (MEM medium (Nacalai Tesque), 1×MEM Non-Essential Amino Acids Solution (Thermo Fisher Scientific), 1 mM Sodium Pyruvate (Nacalai Tesque), 1% Penicillin-Streptomycin (Sigma Aldrich), and 0.3% FBS (Thermo Fisher Scientific)) to starvation. To the Assay medium, 100 μL of 10 ng/mL human recombinant VEGF (R&D Systems) was added, and further, MAET-VEGFR_D2-PAS16, MAET-VEGFR_D2-PAS49-b, MAET-VEGFR_D2-PAS100-b, or a cell-free expression solution containing MAET-VEGFR_D2-GS16, or a cell-free expression solution with unexpressed peptide was added at a predetermined dilution factor, and 100 μL of the Assay medium was added to the cells. The cells were stimulated by culturing in a 5% CO2 incubator at 37° C. for 4 hours.
The VEGF inhibitory ability of the VEGFR_D2-PAS heterodimer peptide linker variant was evaluated by luciferase assay. 40,000 cell/well VEGFR/NFAT Reporter HEK293 cells (BPS Bioscience) were seeded and incubated overnight in a 5% CO2 incubator at 37° C. The cells were incubated overnight in Assay medium (MEM medium (Nacalai Tesque), 1×MEM Non-Essential Amino Acids Solution (Thermo Fisher Scientific), 1 mM Sodium Pyruvate (Nacalai Tesque), 1% Penicillin-Streptomycin (Sigma Aldrich), and 0.3% FBS (Thermo Fisher Scientific)) to starvation. To the Assay medium, 10 ng/mL human recombinant VEGF (R&D Systems) was added, and further, a culture supernatant containing VEGFR_D2-PAS16, VEGFR_D2-PAS49, or VEGFR_D2-PAS100 at a predetermined concentration was added, and 100 μL of the Assay medium was added to the cells. The cells were stimulated by culturing in a 5% CO2 incubator at 37° C. for 4 hours. Note that VEGFR_D2-PAS16 was obtained according to the method described in Example 27.

[2] = biological target: T2, Met (Homo sapiens, UniProt P08581); test: Met activation ability, SRE luciferase assay in HEK293E cells (HGF-Erk-SRE pathway); format: cell-based; details: for Met activation ability: Example 37, cell-free translation solution diluted, FIG. 69
T2 construct: endogenous in cells; host or cells: HEK293E
Protocol: (§1) The Met activation ability of the HGF-PAS dimer peptide was evaluated by luciferase assay. To 25 μL of Opti-MEM medium (Thermo Fisher Scientific), 0.6 μL of Attractene Transfection Reagent (QIAGEN) was added, and the mixture was incubated at room temperature for 5 minutes. To the above mixed solution, a mixed solution of 25 μL of Opti-MEM and 1 μL of SRE reporter vector (QIAGEN) was added, and the mixture was incubated at room temperature for 20 minutes. This mixed solution was added to a 96-well plate, over which 40,000 cell/well HEK293E cells were seeded and incubated overnight in a 5% CO2 incubator at 37° C. After transfection, all culture supernatant was removed, 100 μL of Opti-MEM medium (evaluation basal medium) containing 0.5% FBS (Thermo Fisher Scientific), 1% non-essential amino acid solution (Thermo Fisher Scientific), and penicillin-streptomycin (Nacalai Tesque) was added, and incubation was performed at 37° C. for 4 hours, and thereby the cells were starved.
To the evaluation basal medium, 0 to 200 ng/mL HGF was added, or 0 to 800 ng/mL AET-PAS-aMD4dY-PEG11, AET-PAS-aMD4-PEG11, or AET-PAS-aMD4-PEG3 was added, or a culture supernatant containing PAS-aMD4dY-PEG11, PAS-aMD4-PEG11, or PAS-aMD4-PEG3 was added so as to be diluted 10-fold with respect to the medium, and the evaluation basal medium was added in an amount of 100 μL to the cells. The cells were stimulated by culturing overnight in a 5% CO2 incubator at 37° C.
The signal intensities were detected using Dual-Luciferase Reporter Assay System (Promega). The medium supernatant in an amount of 100 μL was removed, 50 μL of Glo reagent was added, and the cells were lysed for 10 minutes at room temperature. The luminescence of Firefly luciferase emitted from the cell lysate solution was detected with a plate reader to quantify the activation of the HGF-Erk-SRE pathway. Subsequently, 50 μL of Glo & Stop reagent solution was added, and after 10 minutes, the luminescence of the internal standard Renilla luciferase was detected to quantify the number of cells. The signal activity of each sample was quantified as SRE activity=(Firefly luciferase luminescence intensity)/(Renilla luciferase luminescence intensity). The relative signal activity values for the samples without addition of the evaluation compound were determined and used as relative receptor activity.
as §1, with “peptide linker variant” for “peptide”, “0.6 L” for “0.6 μL”
To the evaluation basal medium, 0 to 100 ng/mL HGF was added, or a culture supernatant containing AET-aMD4dY-PAS8, AET-aMD4dY-PAS22 (the same molecule as AET-PAS-aMD4dY-PEG11), AET-aMD4dY-PAS49, AET-aMD4dY-PAS100, AET-aMD4dY-PAS200, AET-aMD4dY-GS15, or AET-aMD4dY-GS22 was added to the medium so as to be diluted at a predetermined ratio, and the evaluation basal medium was added in an amount of 100 μL to the cells. The cells were stimulated by culturing overnight in a 5% CO2 incubator at 37° C.
The Met activation ability of the stabilized HGF-PAS dimer peptide was evaluated by luciferase assay. […]

[3] = biological target: Met (HGF receptor) (UniProt P08581 25-1390, limits assumed); test: cell-based or functional assay
Sequence of Met (HGF receptor) (P08581 25-1390 limits assumed): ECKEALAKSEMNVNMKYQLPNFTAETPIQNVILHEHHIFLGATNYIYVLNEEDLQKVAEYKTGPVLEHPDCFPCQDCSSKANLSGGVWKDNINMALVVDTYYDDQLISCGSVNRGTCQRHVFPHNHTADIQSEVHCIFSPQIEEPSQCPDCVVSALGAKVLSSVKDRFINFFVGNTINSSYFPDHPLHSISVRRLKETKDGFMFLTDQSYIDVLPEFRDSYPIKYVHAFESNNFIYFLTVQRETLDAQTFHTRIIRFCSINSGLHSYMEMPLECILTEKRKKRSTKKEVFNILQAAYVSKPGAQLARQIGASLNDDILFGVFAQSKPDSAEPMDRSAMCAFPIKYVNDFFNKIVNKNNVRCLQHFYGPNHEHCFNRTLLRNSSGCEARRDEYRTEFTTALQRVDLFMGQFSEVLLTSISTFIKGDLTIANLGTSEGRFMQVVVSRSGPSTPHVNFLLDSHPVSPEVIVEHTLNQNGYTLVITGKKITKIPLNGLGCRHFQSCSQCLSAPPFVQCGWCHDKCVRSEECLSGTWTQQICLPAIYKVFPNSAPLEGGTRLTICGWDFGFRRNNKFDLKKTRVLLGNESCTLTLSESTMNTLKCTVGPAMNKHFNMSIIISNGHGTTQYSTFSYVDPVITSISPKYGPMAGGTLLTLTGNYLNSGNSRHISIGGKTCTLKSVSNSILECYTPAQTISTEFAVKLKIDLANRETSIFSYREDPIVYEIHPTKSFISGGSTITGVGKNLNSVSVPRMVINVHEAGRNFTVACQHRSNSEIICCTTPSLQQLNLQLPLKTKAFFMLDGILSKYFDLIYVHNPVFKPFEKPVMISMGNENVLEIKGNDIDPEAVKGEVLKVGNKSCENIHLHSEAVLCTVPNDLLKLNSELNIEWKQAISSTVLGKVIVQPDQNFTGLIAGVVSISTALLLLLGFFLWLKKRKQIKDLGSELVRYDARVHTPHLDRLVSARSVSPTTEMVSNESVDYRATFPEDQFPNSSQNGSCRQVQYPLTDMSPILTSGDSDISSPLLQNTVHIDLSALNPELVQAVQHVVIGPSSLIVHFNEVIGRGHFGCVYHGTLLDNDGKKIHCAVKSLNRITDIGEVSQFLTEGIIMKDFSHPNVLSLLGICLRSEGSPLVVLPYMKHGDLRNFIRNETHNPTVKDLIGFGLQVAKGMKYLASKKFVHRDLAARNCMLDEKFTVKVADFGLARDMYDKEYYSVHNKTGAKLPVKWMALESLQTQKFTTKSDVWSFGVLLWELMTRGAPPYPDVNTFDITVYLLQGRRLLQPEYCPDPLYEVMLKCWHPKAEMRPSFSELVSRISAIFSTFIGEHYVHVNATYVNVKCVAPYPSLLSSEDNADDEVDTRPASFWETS

T2 sequence (P08581 25-1390): as the sequence (P08581 25-1390 limits assumed) above
T1 sequence (P35968 20-1356): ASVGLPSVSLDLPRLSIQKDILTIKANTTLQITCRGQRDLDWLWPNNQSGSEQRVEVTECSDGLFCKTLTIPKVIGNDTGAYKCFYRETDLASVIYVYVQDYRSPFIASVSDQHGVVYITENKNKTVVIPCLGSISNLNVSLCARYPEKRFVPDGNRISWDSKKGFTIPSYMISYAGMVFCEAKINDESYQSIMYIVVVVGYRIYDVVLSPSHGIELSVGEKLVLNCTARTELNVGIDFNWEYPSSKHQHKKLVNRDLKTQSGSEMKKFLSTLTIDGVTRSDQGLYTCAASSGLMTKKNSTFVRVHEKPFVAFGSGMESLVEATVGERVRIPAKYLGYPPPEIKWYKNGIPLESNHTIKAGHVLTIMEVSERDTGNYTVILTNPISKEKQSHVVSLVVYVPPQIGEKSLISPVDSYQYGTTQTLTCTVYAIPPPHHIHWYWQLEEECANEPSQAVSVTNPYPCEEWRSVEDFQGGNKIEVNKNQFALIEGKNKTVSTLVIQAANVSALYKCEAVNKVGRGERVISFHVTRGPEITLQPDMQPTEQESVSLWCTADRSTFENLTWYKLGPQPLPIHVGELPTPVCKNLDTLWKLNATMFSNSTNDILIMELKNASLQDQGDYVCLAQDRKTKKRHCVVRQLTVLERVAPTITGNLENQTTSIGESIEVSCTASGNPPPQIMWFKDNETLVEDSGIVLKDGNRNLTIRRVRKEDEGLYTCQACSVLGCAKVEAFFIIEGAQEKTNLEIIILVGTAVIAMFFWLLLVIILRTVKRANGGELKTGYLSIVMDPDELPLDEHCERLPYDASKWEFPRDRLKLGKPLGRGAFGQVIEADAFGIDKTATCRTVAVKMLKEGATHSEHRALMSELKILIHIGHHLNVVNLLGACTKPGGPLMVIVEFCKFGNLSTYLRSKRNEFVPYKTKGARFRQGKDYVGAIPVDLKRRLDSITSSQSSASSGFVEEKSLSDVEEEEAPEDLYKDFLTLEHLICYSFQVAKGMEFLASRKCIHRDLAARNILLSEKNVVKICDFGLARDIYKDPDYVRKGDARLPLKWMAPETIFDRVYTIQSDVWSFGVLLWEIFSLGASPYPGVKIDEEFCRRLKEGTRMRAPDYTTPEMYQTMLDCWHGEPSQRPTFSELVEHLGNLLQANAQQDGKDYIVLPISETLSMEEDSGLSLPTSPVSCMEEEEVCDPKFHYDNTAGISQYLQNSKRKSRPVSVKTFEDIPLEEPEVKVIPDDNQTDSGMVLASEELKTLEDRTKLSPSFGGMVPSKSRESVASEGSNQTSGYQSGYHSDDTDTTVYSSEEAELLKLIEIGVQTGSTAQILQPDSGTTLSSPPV

AETAGPTWCEDDWYYCWLFGTAAPAAPAPAAPAAPAPAAPAAPAPAAPAAPAPAAPAAPAPAAPAAPAPAVCWEDSWGGEVCWLFGT (disulfide 9-16, 72-82) [AET-VEGFR_D2-PAS49]
IC50 [1]: 1.43 nM

AETAGPTWCEDDWYYCWLFGTAAPAAPAPAAPAAPAPVCWEDSWGGEVCWLFGT (disulfide 9-16, 39-49) [AET-VEGFR_D2-PAS16]
IC50 [1]: 0.26 nM | VEGF inhibitory activity (relative VEGF activity) ([1]; Example 29, purified by HPLC, 10 ng/mL VEGF, 4 hours, FIG. 47): higher inhibitory activity than the monomer peptides P3 and Pm4

CRQFNRRTHEVWNLDC (disulfide 1-16) [aMD4dY, reference compound]
signal activation ability, dimer versus monomer ([2]; Example 43, FIG. 76): showed no signal activation ability

CRQFNRRTHEVWNLDCGAAPAAPAPAAPAAPAPAAPAAPGCRQFNRRTHEVWNLDC (disulfide 1-16, 41-56; also: PEG11) [PAS-aMD4dY-PEG11]
maximum activity compared with HGF ([2]; Example 6, AET form 0 to 800 ng/mL, PAS form culture supernatant diluted 10-fold): comparable to 100 ng/mL HGF

MAETCRQFNRRTHEVWNLDCGAAPAAPAPAAPAAPAPAAPAAPGCRQFNRRTHEVWNLDC (disulfide 5-20, 45-60) [MAET-aMD4dY-PAS22]
Met activation ability [2]: had Met activation ability

MAETCRQFNRRTHEVWNLDCGAAPAAPAPGCRQFNRRTHEVWNLDC (disulfide 5-20, 31-46) [MAET-aMD4dY-PAS8]
Met activation ability [2]: had Met activation ability

B1: MAETCYRQFNRRTHEVWNLDCGAAPAAPAPAAPAAPAPAAPAAPGCRQFNRRTHEVWNLDC (peptide)
chain: MAETCYRQFNRRTHEVWNLDCGAAPAAPAPAAPAAPAPAAPAAPGCRQFNRRTHEVWNLDC
modifications: disulfide 5-21, 46-61
Met activation ability [2]: had Met activation ability

B2: AET-aMD4dY-GS22 (peptide)
peptide: AETCRQFNRRTHEVWNLDCGGGGGSGGGGSGGGGSGGGGSGGGCRQFNRRTHEVWNLDC
modifications: disulfide 4-19, 44-59
Emax (%) [3]: 32.3%

B3: AET-PAS-aMD4dY-PEG11 (peptide)
peptide: AETCRQFNRRTHEVWNLDCGAAPAAPAPAAPAAPAPAAPAAPGCRQFNRRTHEVWNLDC
modifications: disulfide 4-19, 44-59; also: PEG11 in name, stated same as AET-aMD4dY-PAS22
Emax (%) [3]: 100%

B4: AET-aMD4dY-PAS200 (peptide)
peptide: AETCRQFNRRTHEVWNLDCGAAPAAPAPAAPAAPAPAAPAAPAPAAPAAPAPAAPAAPAPAAPAAPAPAAPAAPAPAAPAAPAPAAPAAPAPAAPAAPAPAAPAAPAPAAPAAPAPAAPAAPAPAAPAAPAPAAPAAPAPAAPAAPAPAAPAAPAPAAPAAPAPAAPAAPAPAAPAAPAPAAPAAPAPAAPAAPAPAAPAAPAPAAPAAPAPAAPAAPAPGCRQFNRRTHEVWNLDC
modifications: two disulfide bonds in the molecule
Emax (%) [3]: 20.4%

B5: AETCRQFNRRTHEVWNLDCGAAPAAPAPAAPAAPAPAAPAAPGCRQFNRRTHEVWNLDCGAAPAAPAPAAPAAPAPAAPAAPGCRQFNRRTHEVWNLDC (peptide)
chain: AETCRQFNRRTHEVWNLDCGAAPAAPAPAAPAAPAPAAPAAPGCRQFNRRTHEVWNLDCGAAPAAPAPAAPAAPAPAAPAAPGCRQFNRRTHEVWNLDC
modifications: AET-aMD4dY-PAS22-Trimer; DISULFID (4)..(19) Disulfid bridge between Cys-4 and Cys-19; DISULFID (44)..(59) Disulfid bridge between Cys-44 and Cys-59; DISULFID (84)..(99) Disulfid bridge between Cys-84 and Cys-99
signal activation ability, trimer versus dimer ([2]; Example 42, culture supernatant diluted, FIG. 75): signal activation ability similar to the dimer peptide

B6: AET-aMD4dY-GS15 (peptide)
peptide: AETCRQFNRRTHEVWNLDCGGGGGSGGGGSGGGGSGCRQFNRRTHEVWNLDC
modifications: disulfide 4-19, 37-52
Emax (%) [3]: 45.8%

B7: AET-aMD4dY-PAS8 (peptide)
peptide: AETCRQFNRRTHEVWNLDCGAAPAAPAPGCRQFNRRTHEVWNLDC
modifications: disulfide 4-19, 30-45
Emax (%) [3]: 56.4%

B8: AET-aMD4dY-PAS49 (peptide)
peptide: AETCRQFNRRTHEVWNLDCGAAPAAPAPAAPAAPAPAAPAAPAPAAPAAPAPAAPAAPAPAAPAAPAPAGCRQFNRRTHEVWNLDC
modifications: two disulfide bonds in the molecule
Emax (%) [3]: 82.8%

B9: AET-aMD4dY-PAS100 (peptide)
peptide: AETCRQFNRRTHEVWNLDCGAAPAAPAPAAPAAPAPAAPAAPAPAAPAAPAPAAPAAPAPAAPAAPAPAAPAAPAPAAPAAPAPAAPAAPAPAAPAAPAPAAPAAPAPAAPAAPAPAAPAGCRQFNRRTHEVWNLDC
modifications: two disulfide bonds in the molecule
Emax (%) [3]: 47.2%
